Results as given in PMC10543311.

T1: SNAP-tagged FUS (Fused in sarcoma), P35637
T1 chain: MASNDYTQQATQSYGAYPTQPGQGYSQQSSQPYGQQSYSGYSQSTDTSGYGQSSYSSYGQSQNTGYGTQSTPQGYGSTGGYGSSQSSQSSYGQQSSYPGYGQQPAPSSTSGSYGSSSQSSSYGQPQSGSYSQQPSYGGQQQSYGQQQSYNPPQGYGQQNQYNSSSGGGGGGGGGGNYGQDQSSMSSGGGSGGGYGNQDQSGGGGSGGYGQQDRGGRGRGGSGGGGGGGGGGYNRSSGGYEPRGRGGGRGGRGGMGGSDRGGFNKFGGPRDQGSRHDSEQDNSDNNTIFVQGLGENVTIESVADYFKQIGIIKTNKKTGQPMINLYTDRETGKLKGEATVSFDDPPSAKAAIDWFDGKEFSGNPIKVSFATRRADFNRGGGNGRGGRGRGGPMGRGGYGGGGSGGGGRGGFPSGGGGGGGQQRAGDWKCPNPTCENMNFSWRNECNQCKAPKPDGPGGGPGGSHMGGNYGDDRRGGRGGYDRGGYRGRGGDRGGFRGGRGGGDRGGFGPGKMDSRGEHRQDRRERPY

T2: untagged FUS (Fused in sarcoma), P35637
T2 chain: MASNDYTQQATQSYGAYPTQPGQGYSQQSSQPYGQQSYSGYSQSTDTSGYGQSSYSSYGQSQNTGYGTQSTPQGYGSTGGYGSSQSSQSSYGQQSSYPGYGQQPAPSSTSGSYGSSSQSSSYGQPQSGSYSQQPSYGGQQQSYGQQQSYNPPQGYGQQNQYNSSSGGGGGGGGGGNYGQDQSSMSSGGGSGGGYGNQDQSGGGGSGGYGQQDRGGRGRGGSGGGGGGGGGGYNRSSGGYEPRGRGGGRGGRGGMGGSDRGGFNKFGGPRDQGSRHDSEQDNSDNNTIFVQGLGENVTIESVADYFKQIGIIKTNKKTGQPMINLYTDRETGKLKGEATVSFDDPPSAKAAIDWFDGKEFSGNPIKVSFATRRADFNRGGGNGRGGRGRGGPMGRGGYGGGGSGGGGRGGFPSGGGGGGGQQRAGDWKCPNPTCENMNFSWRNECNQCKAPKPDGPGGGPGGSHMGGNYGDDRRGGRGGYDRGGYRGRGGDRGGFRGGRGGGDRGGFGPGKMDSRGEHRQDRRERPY


What was measured:
Settings in all cases: remark: other sources report otherwise
[1] = target: T1, SNAP-tagged FUS (Fused in sarcoma), …; assay: dynamic light scattering (DLS); derived count rate and size distributions in sub-saturated solutions; 20 mM Tris.Glu pH 7.4, 100 mM KGlu (with residual KCl from the stock), 25 °C; self-association into clusters
[2] = target: T1, SNAP-tagged FUS (Fused in sarcoma), …; assay: nanoparticle tracking analysis (NTA); mesoscale clusters in sub-saturated solutions; 100 mM KGlu and 100 mM KCl, 25 °C, recorded 6 minutes after sample preparation
[3] = target: T2, untagged FUS (Fused in sarcoma), P35637; assay: as above

Row | derived count rate in 100 mM KGlu relative to 100 mM KCl [1] [fold] | abundance of mesoscale clusters in 100 mM KGlu relative to 100 mM KCl [2] [fold] | abundance of mesoscale clusters in 100 mM KGlu relative to 100 mM KCl [3] [fold] | Binder
1 | < 3 | 4 |  | SNAP-tagged FUS (Fused in sarcoma), P35637 1-526 (natural protein, here or on the partner: Alexa 488 (AF488) or Alexa 647 (AF647) label in the smFRET and FCS experiments; unlabelled elsewhere; Alexa 488 (AF488) or Alexa 647 (AF647) label in the smFRET and FCS experiments; unlabelled elsewhere) MASNDYTQQATQSYGAYPTQPGQGYSQQSSQPYGQQSYSGYSQSTDTSGYGQSSYSSYGQSQNTGYGTQSTPQGYGSTGGYGSSQSSQSSYGQQSSYPGYGQQPAPSSTSGSYGSSSQSSSYGQPQSGSYSQQPSYGGQQQSYGQQQSYNPPQGYGQQNQYNSSSGGGGGGGGGGNYGQDQSSMSSGGGSGGGYGNQDQSGGGGSGGYGQQDRGGRGRGGSGGGGGGGGGGYNRSSGGYEPRGRGGGRGGRGGMGGSDRGGFNKFGGPRDQGSRHDSEQDNSDNNTIFVQGLGENVTIESVADYFKQIGIIKTNKKTGQPMINLYTDRETGKLKGEATVSFDDPPSAKAAIDWFDGKEFSGNPIKVSFATRRADFNRGGGNGRGGRGRGGPMGRGGYGGGGSGGGGRGGFPSGGGGGGGQQRAGDWKCPNPTCENMNFSWRNECNQCKAPKPDGPGGGPGGSHMGGNYGDDRRGGRGGYDRGGYRGRGGDRGGFRGGRGGGDRGGFGPGKMDSRGEHRQDRRERPY
2 |  |  | 4 | untagged FUS (Fused in sarcoma), P35637 1-526 (natural protein) MASNDYTQQATQSYGAYPTQPGQGYSQQSSQPYGQQSYSGYSQSTDTSGYGQSSYSSYGQSQNTGYGTQSTPQGYGSTGGYGSSQSSQSSYGQQSSYPGYGQQPAPSSTSGSYGSSSQSSSYGQPQSGSYSQQPSYGGQQQSYGQQQSYNPPQGYGQQNQYNSSSGGGGGGGGGGNYGQDQSSMSSGGGSGGGYGNQDQSGGGGSGGYGQQDRGGRGRGGSGGGGGGGGGGYNRSSGGYEPRGRGGGRGGRGGMGGSDRGGFNKFGGPRDQGSRHDSEQDNSDNNTIFVQGLGENVTIESVADYFKQIGIIKTNKKTGQPMINLYTDRETGKLKGEATVSFDDPPSAKAAIDWFDGKEFSGNPIKVSFATRRADFNRGGGNGRGGRGRGGPMGRGGYGGGGSGGGGRGGFPSGGGGGGGQQRAGDWKCPNPTCENMNFSWRNECNQCKAPKPDGPGGGPGGSHMGGNYGDDRRGGRGGYDRGGYRGRGGDRGGFRGGRGGGDRGGFGPGKMDSRGEHRQDRRERPY
